Source: PMC9117555 (iScience, 2022)

Tests used:
TrkA-ΔeJTM (rat) = TrkA-ΔeJTM (rat) (UniProt P35739); test: flow cytometry on cells
[1] = target: rat TrkA with an N-terminal HA tag (wild type) (rat, UniProt P35739 33-799); test: flow cytometry on cells
solution NMR = target: the molecule itself; test: solution NMR
cross-linking = target: the molecule itself; test: cross-linking

## biotinylated NGF (nerve growth factor) (from UniProt P01139 122-241) (ligand)
TrkA-ΔeJTM (rat)
  Kd: 760 nM

B1: biotinylated NGF (nerve growth factor) (ligand, UniProt P01139 122-241, looked up)
chain: SSTHPVFHMGEFSVCDSVSVWVGDKTTATDIKGKEVTVLAEVNINNSVFRQYFFETKCRASNPVESGCRGIDSKHWNSYCTTTHTFVKALTTDEKQAAWRFIRIDTACVCVLSRKATRRG
modifications: biotin (EZ-Link Sulfo-NHS-Biotin reagent; sites not stated)
[1]
  Kd: 4.4 nM

B2: TrkA-eJTM-TMD (D380-K447 of human TrkA) (domain or fragment, UniProt P04629 380-447, looked up)
chain: DNPFEFNPEDPIPVSFSPVDTNSTSGDPVEKKDETPFGVSVAVGLAVFACLFLSTLLLVLNKCGRRNK
Solution NMR
  stoichiometry N: 2

B3: TrkA-eJTM-TMD-K410C (domain or fragment, human, UniProt P04629 380-447, looked up)
chain: DNPFEFNPEDPIPVSFSPVDTNSTSGDPVECKDETPFGVSVAVGLAVFACLFLSTLLLVLNKCGRRNK
modifications: also: disulfide between C410 of two chains in the cross-linked state (dimer)
cross-linking
  stoichiometry N: 2
